Assay results taken from article PMC10393190 (Genes & Development, 2022).

B2: Rec114 C-terminal (dimerization) domain, residues 375–428 (domain or fragment)
chain: EASPSEGLTIRVKNVNRNASRKISKRLIKEKLKDEEFMKWVNKVETVLNKMFEK

Tests used:
[1] = target: HisSUMO-PAIR1 coiled-coil domain (residues 140–310) (Z. mays) (Z. mays); experiment: SEC-MALS
[2] = target: HisSUMO-ASY2 coiled-coil domain (residues 55–275) (Sordaria macrospora) (Sordaria macrospora); experiment: SEC-MALS
SEC-MALS = target: the molecule itself; experiment: SEC-MALS
NMR = target: the molecule itself; experiment: NMR
Mer2 = target: T1, Mer2 (Saccharomyces cerevisiae, UniProt P21651 1-314); experiment: EMSA
T1 sequence: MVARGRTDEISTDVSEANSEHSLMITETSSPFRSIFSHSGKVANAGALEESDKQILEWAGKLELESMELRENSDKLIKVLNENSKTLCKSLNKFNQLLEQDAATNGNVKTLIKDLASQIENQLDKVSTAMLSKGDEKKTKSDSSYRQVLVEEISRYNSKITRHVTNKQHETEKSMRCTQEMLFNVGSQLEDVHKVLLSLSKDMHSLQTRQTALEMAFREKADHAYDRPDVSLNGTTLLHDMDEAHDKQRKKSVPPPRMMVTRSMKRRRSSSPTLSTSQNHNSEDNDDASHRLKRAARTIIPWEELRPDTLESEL

IHO1 coiled-coil domain = target: T2, IHO1 coiled-coil domain (Mus musculus, UniProt Q6PDM4 109-267); experiment: EMSA
T2 sequence: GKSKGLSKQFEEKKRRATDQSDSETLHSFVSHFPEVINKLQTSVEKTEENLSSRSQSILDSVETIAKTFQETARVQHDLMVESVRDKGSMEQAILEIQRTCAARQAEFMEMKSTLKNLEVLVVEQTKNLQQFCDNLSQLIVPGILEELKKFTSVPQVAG

Rec15 coiled-coil domain = target: T3, Rec15 coiled-coil domain (Schizosaccharomyces pombe, UniProt Q09094 1-160); experiment: EMSA
T3 sequence: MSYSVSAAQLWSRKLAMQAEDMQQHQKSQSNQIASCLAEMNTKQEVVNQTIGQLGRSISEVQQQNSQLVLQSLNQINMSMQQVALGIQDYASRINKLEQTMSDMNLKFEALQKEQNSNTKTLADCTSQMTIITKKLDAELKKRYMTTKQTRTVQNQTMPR

[3] = target: T4, IHO1-KKRR coiled-coil domain (Mus musculus, UniProt Q6PDM4 109-267, K121A;K122A;R123A;R124A); experiment: EMSA
T4 sequence: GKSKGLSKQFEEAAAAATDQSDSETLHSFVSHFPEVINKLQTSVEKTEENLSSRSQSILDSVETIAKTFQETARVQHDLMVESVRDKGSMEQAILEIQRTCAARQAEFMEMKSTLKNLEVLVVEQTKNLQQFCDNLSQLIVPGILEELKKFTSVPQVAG

[4] = target: T5, Rec15-5KR coiled-coil domain (Schizosaccharomyces pombe, UniProt Q09094 1-160, K134A;K135A;K141A;K142A;R143A); experiment: EMSA
T5 sequence: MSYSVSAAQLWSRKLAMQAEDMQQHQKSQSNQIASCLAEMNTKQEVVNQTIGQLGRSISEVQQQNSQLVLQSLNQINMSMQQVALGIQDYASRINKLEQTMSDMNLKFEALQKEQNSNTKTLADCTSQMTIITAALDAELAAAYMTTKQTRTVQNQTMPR

[5] = target: T6, Rec114-6KR C-terminal domain;Mei4 N-terminal domain (Saccharomyces cerevisiae;Saccharomyces …, UniProt P32841;P29467 375-428;1-43, R395A;K396A;K399A;R400A;K403A;K407A|); experiment: EMSA
T6 sequence 1: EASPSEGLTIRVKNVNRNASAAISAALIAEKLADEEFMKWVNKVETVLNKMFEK
T6 sequence 2: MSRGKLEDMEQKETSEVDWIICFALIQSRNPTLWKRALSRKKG

Mer2-KKTK mutant = target: T7, Mer2-KKTK mutant (Saccharomyces cerevisiae, UniProt P21651 1-314, K137A;K138A;K140A); experiment: EMSA
T7 sequence: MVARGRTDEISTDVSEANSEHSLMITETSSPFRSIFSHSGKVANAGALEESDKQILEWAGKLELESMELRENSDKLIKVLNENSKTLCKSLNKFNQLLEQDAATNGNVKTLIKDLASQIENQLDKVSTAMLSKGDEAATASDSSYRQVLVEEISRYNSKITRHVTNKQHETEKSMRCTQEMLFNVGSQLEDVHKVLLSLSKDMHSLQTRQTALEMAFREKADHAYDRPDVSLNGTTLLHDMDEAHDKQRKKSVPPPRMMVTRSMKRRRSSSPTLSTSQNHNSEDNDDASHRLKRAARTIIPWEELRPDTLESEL

[6] = target: B2; experiment: NMR

Molecule “HisSUMO-PAIR1 coiled-coil domain (residues 140–310) (Z. mays) (domain or fragment)” has a stoichiometry N [1] of 4.

“HisSUMO-ASY2 coiled-coil domain (residues 55–275) (Sordaria macrospora) (domain or fragment)” gave a stoichiometry N [2] of 4.

B1: Mer2 C-terminal half of the coiled coil (residues 138–224) (domain or fragment)
chain: KTKSDSSYRQVLVEEISRYNSKITRHVTNKQHETEKSMRCTQEMLFNVGSQLEDVHKVLLSLSKDMHSLQTRQTALEMAFREKADHA
B1 was tested, and the “stoichiometry N” value (SEC-MALS) was 4.

B2: binds (NMR).

B3: Mer2 N-terminal half of the coiled coil (residues 41–136) (domain or fragment)
chain: KVANAGALEESDKQILEWAGKLELESMELRENSDKLIKVLNENSKTLCKSLNKFNQLLEQDAATNGNVKTLIKDLASQIENQLDKVSTAMLSKGDE
In the case of B3, the “stoichiometry N” value (SEC-MALS) is reported as 2.

B4: HisSUMO-PRD3 coiled-coil domain (residues 120–270) (A. thaliana) (domain or fragment)
chain: IGESKSQISEELEQRFGMMETSLSRFGMMLDSIQSDIMQANRGTKEVFLETERIQQKLTLQDTSLQQLRKEQADSKASLDGGVKFILEEFSKDPNQEKLQKILQMLTTIPEQVETALQKIQREICHTFTREIQVLASLRTPEPRVRVPTAP
For B4, the “stoichiometry N” value (SEC-MALS) was 4.

B5: HisSUMO-IHO1 coiled-coil domain (residues 109–267) (M. musculus) (domain or fragment)
chain: GKSKGLSKQFEEKKRRATDQSDSETLHSFVSHFPEVINKLQTSVEKTEENLSSRSQSILDSVETIAKTFQETARVQHDLMVESVRDKGSMEQAILEIQRTCAARQAEFMEMKSTLKNLEVLVVEQTKNLQQFCDNLSQLIVPGILEELKKFTSVPQVAG
With B5 the “stoichiometry N” value (SEC-MALS) was 4.

B6: Y (cb095/cb098/cb101) (structured_DNA)
DNA 1: CTAGTATAGAGCCGGCGCGCCATGTCTAGATAGCGTTAGGTCTGCCGAATAGTACTACTCGGATCCCGAGCGAACCACGC
DNA 2: CACGGGTAACCGCGGGTACCGTGAAGATCTACTCGCGTCTCCTAACGCTATCTAGACATGGCGCGCCGGCTCTATACTAG
DNA 3: GCGTGGTTCGCTCGGGATCCGAGTAGTACTATTCGGCAGAAGACGCGAGTAGATCTTCACGGTACCCGCGGTTACCCGTG
For B6, the “apparent K (half saturation)” value (Mer2) was 10.6 ± 1.2 nM.

B7: HJ40 fluorescent (dd077/cb096/cb097/cb098) (structured_DNA)
DNA 1: CTAGTATAGAGCCGGCGCGCCATGTCTAGATAGCGTTAGGTCTGCCGAATAGTACTACTCGGATCCCGAGCGAACCACGC
DNA 2: GCGTGGTTCGCTCGGGATCCGAGTAGTACTATTCGGCAGAGGATTCGAATAGGCCTAATCGAATTCCGCCATCGATGCAC
DNA 3: GTGCATCGATGGCGGAATTCGATTAGGCCTATTCGAATCCAGACGCGAGTAGATCTTCACGGTACCCGCGGTTACCCGTG
DNA 4: CACGGGTAACCGCGGGTACCGTGAAGATCTACTCGCGTCTCCTAACGCTATCTAGACATGGCGCGCCGGCTCTATACTAG
B7: binds (IHO1 coiled-coil domain); binds (Rec15 coiled-coil domain); no binding [3]. B7: no binding [4]; no binding [5]; binds (Mer2-KKTK mutant).

B8: Mer2 (residues 161–224) (domain or fragment)
chain: TRHVTNKQHETEKSMRCTQEMLFNVGSQLEDVHKVLLSLSKDMHSLQTRQTALEMAFREKADHA
For B8, the “stoichiometry N” value (SEC-MALS) was 3.

B9: HisSUMO-Rec15 coiled-coil domain (residues 1–160) (S. pombe) (domain or fragment)
chain: MSYSVSAAQLWSRKLAMQAEDMQQHQKSQSNQIASCLAEMNTKQEVVNQTIGQLGRSISEVQQQNSQLVLQSLNQINMSMQQVALGIQDYASRINKLEQTMSDMNLKFEALQKEQNSNTKTLADCTSQMTIITKKLDAELKKRYMTTKQTRTVQNQTMPR
B9 was tested, and the “stoichiometry N” value (SEC-MALS) was 4.

B10: HisSUMO-tagged Mer2 coiled-coil domain (residues 41–224) (domain or fragment)
chain: KVANAGALEESDKQILEWAGKLELESMELRENSDKLIKVLNENSKTLCKSLNKFNQLLEQDAATNGNVKTLIKDLASQIENQLDKVSTAMLSKGDEKKTKSDSSYRQVLVEEISRYNSKITRHVTNKQHETEKSMRCTQEMLFNVGSQLEDVHKVLLSLSKDMHSLQTRQTALEMAFREKADHA
B10 was tested, and the “stoichiometry N” value (SEC-MALS) was 4.

B11: Mei4 N-terminal domain, residues 1–43 (domain or fragment)
chain: MSRGKLEDMEQKETSEVDWIICFALIQSRNPTLWKRALSRKKG
B11: binds [6].
